Data published in patent publication WO2011083140A1 (dated 2011).
Several values for one entry are separate records, joined by “and”; a condition that tells them apart may be missing. Equal entries are not always repeated.

B1: 4CXCR015A01 (VHH, not shown: small tags and cut ends)
VHH: EVQLVESGGGLVQAGGSLRLSCAASGRTFSRAAMGWFRQAPGKEREFVGCALSSAGSALTADSVKGRFTISRDNAKNMVYLQMNNLKPEDTAVYSCVAGGYCTRAGVYPYWGQGTQVTVSS
notes: also called 15A1; P4CXCR15A01
B2: 4CXCR010E09 (VHH)
VHH: EVQLVESGGGLVQTGGSLRLSCAASGRTFSSYAMGWFRRAPGKEREFVATISWRGDRKYYSESVKDRFTIARGRSNKNAVYLQMNSLKPEDTAVYYCAKDRAPYGSGSPDVKQYEHWGQGTQVTVSS
notes: Monovalent Nanobody from E. coli; also called 10E9; P4CXCR10E09; not shown: C-terminal c-myc tag and His6 tag
B3: 4CXCR010G10 (VHH)
VHH: EVQLVESGGGLVQAGGSLRLSCAASGRTFNSYAMAWFRQAPGKERENVAAIRWSGGRATKYADSVRGRFTISKDNAKNTVYLQMSSLKPEDTAVYYCATQTYYRSGLASTRDFDSWGQGTQVTVSS
modifications: Alexa-647 label in the competition FACS of D-2
notes: also called P4CXCR10G10; not shown: C-terminal c-myc tag and His6 tag
B4: 4CXCR015H03 (VHH)
VHH: EVQLVESGGGSVQTGGSLRVSCAASGLSFNTYTMGWLRQAPGKEREFVAVINWNGDRTNYADSVKGRFSVSRDNAKNTVFLQMNSLRPEDTAVYYCAARPRFTAEPMTSRRYQYWGRGTQVTVSS
notes: also called 15H3; P4CXCR15H3; not shown: C-terminal c-myc tag and His6 tag
B5: 4CXCR010E12 (VHH)
VHH: EVQLVESGGGLVQAGGSLRLSCAVSGRTFTSYDMAWFRQAPGKERESVAAIRWTGSSTYYADSVKGRFTISRDNAKSTVYLQMNSLKPEDTAVYYCAARDTGRYRSRTYDYWGQGTQVTVSS
notes: also called P4CXCR10E12; not shown: C-terminal c-myc tag and His6 tag
B6: 4CXCR281E10 (VHH)
VHH: EVQLVESGGGLVQAGGSLRLSCKASGGTFNNYAMGWFRRAPGKEREFVAAITRSGVRSGVSAIYGDSVKDRFTISRDNVKNTLYLQMNTLKPEDTAVYTCAASAIGSGALRRFEYDYSGQGTQVTVSS
notes: Family member of 238D4 (family 17); also called P4CXCR281E10; not shown: C-terminal c-myc tag and His6 tag
B7: 4CXCR014A02 (VHH)
VHH: EVQLVESGGGLVQAGGSLRLSCVASGISSSIRNMGWYRQAPGKQRESVATISSGGNKDYTDAVKDRFTISRDTTKNTVYLQMSSLKPEDTAVYYCKIEAGTGWATRRGYTYWGQGTQVTVSS
notes: also called 14A2; not shown: C-terminal c-myc tag and His6 tag

Legend:
human CXCR4 [1] = target: T1, human CXCR4 (human, UniProt P61073 1-352); experiment: binding to CXCR4 VLP, Table C-3
T1 construct: whole, on cells; Same receptor used on cells, on VLPs and in membrane extracts; also called hCXCR4; human chemokine receptor CXCR4

human CXCR4 [2] = target: T1, human CXCR4; experiment: SDF-1 displacement (competition with SDF-1 for CXCR4), Table C-3
human CXCR4 [3] = target: T1, human CXCR4; experiment: cell-based or functional assay
human CXCR4 [4] = target: T1, human CXCR4; experiment: binding to Caki-CXCR4 cells, Table C-3
mouse CXCR4 = target: T2, mouse CXCR4 (mouse, UniProt P70658 1-359); experiment: binding FACS on murine BaF-3 cells, anti-myc detection
T2 construct: whole, on cells; also called mCXCR4

CXCR4 F189V = target: T3, CXCR4 F189V (human, UniProt P61073 1-352); experiment: flow cytometry on transiently transfected HEK293T cells, Myc-tag detection
T3 construct: whole, on cells

CXCR4 V196E = target: T4, CXCR4 V196E (human, UniProt P61073 1-352); experiment: as above
T4 construct: whole, on cells

CXCR4 D187V = target: T5, CXCR4 D187V (human, UniProt P61073 1-352); experiment: as above
T5 construct: whole, on cells; Printed as Dl 87V in this copy
T5 sequence (P61073 whole entry D187V): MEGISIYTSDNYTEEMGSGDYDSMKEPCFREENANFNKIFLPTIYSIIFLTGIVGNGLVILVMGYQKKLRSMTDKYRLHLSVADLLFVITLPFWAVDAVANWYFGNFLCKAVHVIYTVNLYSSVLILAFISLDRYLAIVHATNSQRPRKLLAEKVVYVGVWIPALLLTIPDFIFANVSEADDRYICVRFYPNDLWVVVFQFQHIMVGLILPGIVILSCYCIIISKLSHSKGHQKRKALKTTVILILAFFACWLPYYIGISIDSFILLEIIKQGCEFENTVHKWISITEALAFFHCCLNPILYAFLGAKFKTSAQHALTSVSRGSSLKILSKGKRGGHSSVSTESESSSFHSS

T1 sequence (P61073 whole entry): as the sequence (P61073 whole entry D187V) above, with V187D counted along it
T2 sequence (P70658 whole entry): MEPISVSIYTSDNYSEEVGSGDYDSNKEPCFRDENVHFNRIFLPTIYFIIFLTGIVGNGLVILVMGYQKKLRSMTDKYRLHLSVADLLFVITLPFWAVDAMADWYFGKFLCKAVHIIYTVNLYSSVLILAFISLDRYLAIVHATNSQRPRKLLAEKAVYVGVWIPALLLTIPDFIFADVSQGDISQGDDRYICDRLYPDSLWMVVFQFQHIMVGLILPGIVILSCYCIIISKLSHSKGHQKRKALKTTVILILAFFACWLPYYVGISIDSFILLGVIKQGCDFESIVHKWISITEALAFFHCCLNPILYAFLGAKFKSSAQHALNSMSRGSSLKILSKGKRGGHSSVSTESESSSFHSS
T3 sequence (P61073 whole entry F189V): as the sequence (P61073 whole entry D187V) above, with V187D, F189V counted along it
T4 sequence (P61073 whole entry V196E): as the sequence (P61073 whole entry D187V) above, with V187D, V196E counted along it

Binder | EC50 (human CXCR4 [1]) [nM] | IC50 (human CXCR4 [2]) [nM] | Chemotaxis IC50 (M) +HSA (human CXCR4 [3]) [M] | Chemotaxis IC50 (M) -HSA (human CXCR4 [3]) [M] | EC50 (human CXCR4 [4]) [nM] | Chemotaxis IC50 (nM) Jurkat (human CXCR4 [3]) | binding result (mouse CXCR4) | Chemotaxis Jurkat cells IC50 (M) n=1 (human CXCR4 [3]) [M] | Chemotaxis Jurkat cells IC50 (M) n=2 (human CXCR4 [3]) [M] | Chemotaxis Jurkat cells IC50 (M) n=3 (human CXCR4 [3]) [M] | cAMP inhibition assay IC50 (M) n=1 (human CXCR4 [3]) [M] | cAMP inhibition assay IC50 (M) n=2 (human CXCR4 [3]) [M] | binding result (CXCR4 F189V) | binding result (CXCR4 V196E) | binding result (CXCR4 D187V)
B1 | 0.2 | 5.1 | 1.18e-09 | 1.7e-09 | – | – | – | – | – | – | – | – | – | – | –
B2 | 0.52 | 4.7 | 1.93e-09 | 3.29e-09 | 2.4 | 3.5 nM and 1.2 nM | – | – | – | – | – | – | – | – | –
B3 | 0.29 | 7.9 | 7.74e-10 | 4.11e-09 | 3.3 | 2.1 nM and 2.3 nM | no binding | 2.1e-09 | 2.3e-09 | 4.1e-09 | 1.6e-07 | 9.6e-07 | – | – | –
B4 | – | – | – | – | – | – | – | – | – | – | – | – | binds | binds | binds
B5 | 0.22 | 3 | 1.12e-09 | 2.78e-09 | – | 3.5 nM and 1.4 nM | no binding | – | – | – | – | – | – | – | –
B6 | – | 3.1 | 2.2e-09 | 2.08e-09 | 3.1 | 3.5 nM and 4.7 nM | – | – | – | – | – | – | – | – | –
B7 | 0.73 | 4.1 | – | – | 4 | – | – | 3.3e-09 | 8.1e-10 | – | 4e-07 | 2.5e-06 | – | – | –
